Results on one substance are retold here after article PMC4902928, “Molecular characterization of flavanone 3-hydroxylase gene and flavonoid accumulation in two chemotyped safflower lines in response to methyl jasmonate stimulation” (BMC Plant Biology, 2016).

The series deals with T1, O=C1C[C@@H](c2ccc(O)cc2)Oc2cc(O)cc(O)c21.
T1 construct: MBP fusion (pMAL-c5X) from E. coli BL21(DE3)pLysS, MBP tag cut off by factor Xa
Kind of series: UPLC-Q-TOF/MS of dihydrokaempferol formed; Michaelis-Menten fit. The series is classed as biochemical, Carthamus tinctorius. The note with it: 1 mM 2-oxoglutaric acid, 40 μM FeSO4, 2 mg/ml ascorbic acid, 100 mM tricine pH 7.5, 30 °C, naringenin 10-800 μM, unit misprinted as 'Mm'.

Chain of CtF3H (Carthamus tinctorius) (chain, as listed by the source): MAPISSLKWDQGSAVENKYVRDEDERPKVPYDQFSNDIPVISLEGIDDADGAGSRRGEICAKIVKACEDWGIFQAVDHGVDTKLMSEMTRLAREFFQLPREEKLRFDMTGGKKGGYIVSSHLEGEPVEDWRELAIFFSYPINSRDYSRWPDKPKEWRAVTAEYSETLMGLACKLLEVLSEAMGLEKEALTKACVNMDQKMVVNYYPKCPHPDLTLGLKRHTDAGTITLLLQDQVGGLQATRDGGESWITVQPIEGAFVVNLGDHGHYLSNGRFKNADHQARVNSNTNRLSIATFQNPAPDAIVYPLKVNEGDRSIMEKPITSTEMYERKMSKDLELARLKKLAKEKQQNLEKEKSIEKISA

As for CtF3H (Carthamus tinctorius), the Km (usually the concentration of substrate that gives half-maximal velocity) was 43.75 ± 7.12 µM.
